Drawing on the supplement of paper PMC10567573, this text covers protein stability index for 94 variants.

To fix the notation:
B1: KRT34 (parent)
chain: PTVDLNQVLNETRSQYEALVETNR
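Further: lentivirally expressed fusions sorted by FACS into six bins by GFP to DsRed ratio, PSI derived from sequencing read proportions per bin multiplied by bin number.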

In this data set the parent is B1. In words: protein stability index of a GFP-peptide fusion (GPS, HEK-293T) (PSI 1-6); higher = more stable. As to conditions: c terminus: a fixed tail appended.
As for PTVDLNQSLNETRSQYEALVETNR [V8S], the protein stability index was 4.18.

Take PTVDLNQKLNETRSQYEALVETNR [V8K]: the protein stability index came out at 4.22.

For the variant PTVDLNQLLNETRSQYEALVETNR [V8L], the protein stability index is 1.43. Under PTVDLNQTLNETRSQYEALVETNR [V8T] stands 3.76; under PTVDLNQALNETRSQYEALVETNR [V8A], 3.56. Under PTVDLNQHLNETRSQYEALVETNR [V8H] stands 3.52. Consider PTVDLNQCLNETRSQYEALVETNR [V8C], for which the protein stability index came out at 3.48. Take PTVDLNQRLNETRSQYEALVETNR [V8R]: the protein stability index came out at 4.67.

In the case of PTVDLNQGLNETRSQYEALVETNR [V8G], the protein stability index was 4.2. Under PTVDLNQILNETRSQYEALVETNR [V8I] stands 3.57; under PTVDLNQNLNETRSQYEALVETNR [V8N], 4.58; under PTVDLNQELNETRSQYEALVETNR [V8E], 4.4. For PTVDLNQQLNETRSQYEALVETNR [V8Q], the protein stability index stood at 4.3. Under PTVDLNQPLNETRSQYEALVETNR [V8P] stands 4.2; under PTVDLNQYLNETRSQYEALVETNR [V8Y], 2.29; under PTVDLNQWLNETRSQYEALVETNR [V8W], 2.56. Under PTVDLNQDLNETRSQYEALVETNR [V8D] stands 4.64; under PTVDLNQMLNETRSQYEALVETNR [V8M], 2.88; under PTVGLNQVLNETRSQYEALVETNR [D4G], 3.62. Consider PTVSLNQVLNETRSQYEALVETNR [D4S], for which the protein stability index came to 2.73.

Take PTVHLNQVLNETRSQYEALVETNR [D4H]: the protein stability index was determined as 3.56. On to PTVFLNQVLNETRSQYEALVETNR [D4F], for which the protein stability index came out at 3.19. As for PTVKLNQVLNETRSQYEALVETNR [D4K], the protein stability index came to 3.94.

Take PTVNLNQVLNETRSQYEALVETNR [D4N]: the protein stability index came to 4.38. Consider PTVRLNQVLNETRSQYEALVETNR [D4R], for which the protein stability index was 4.48. With PTVCLNQVLNETRSQYEALVETNR [D4C], the protein stability index stood at 2.97.

For the variant PTVYLNQVLNETRSQYEALVETNR [D4Y], the protein stability index stood at 3.44. For PTVQLNQVLNETRSQYEALVETNR [D4Q], the protein stability index was determined as 4.34. Take PTVLLNQVLNETRSQYEALVETNR [D4L]: the protein stability index came to 3.56.

For the variant PTVELNQVLNETRSQYEALVETNR [D4E], the protein stability index was found to be 4.01. On to PTVILNQVLNETRSQYEALVETNR [D4I], for which the protein stability index turned out to be 3.58. As for PTVWLNQVLNETRSQYEALVETNR [D4W], the protein stability index turned out to be 2.59. On to PTVPLNQVLNETRSQYEALVETNR [D4P], for which the protein stability index is 3.05. For PTVTLNQVLNETRSQYEALVETNR [D4T], the protein stability index turned out to be 3.5.

With PTVALNQVLNETRSQYEALVETNR [D4A], the protein stability index was 4.21. PTVMLNQVLNETRSQYEALVETNR [D4M]: the protein stability index was found to be 3.21. Under PTVVLNQVLNETRSQYEALVETNR [D4V] stands 4.02; under PTVDLNQVLNEDRSQYEALVETNR [T12D], 5.22. Under PTVDLNQVLNEHRSQYEALVETNR [T12H] stands 1.75; under PTVDLNQVLNEIRSQYEALVETNR [T12I], 1.84; under PTVDLNQVLNEFRSQYEALVETNR [T12F], 2.4. For PTVDLNQVLNEGRSQYEALVETNR [T12G], the protein stability index is 4.39.

On to PTVDLNQVLNEERSQYEALVETNR [T12E], for which the protein stability index turned out to be 4.27.

Take PTVDLNQVLNEKRSQYEALVETNR [T12K]: the protein stability index came out at 4.

For PTVDLNQVLNENRSQYEALVETNR [T12N], the protein stability index was determined as 4.03. Take PTVDLNQVLNEARSQYEALVETNR [T12A]: the protein stability index came to 1.8.

On to PTVDLNQVLNECRSQYEALVETNR [T12C], for which the protein stability index worked out at 3.49.

PWVDLNQVLNETRSQYEALVETNR [T2W]: the protein stability index amounted to 1.4. As for PPVDLNQVLNETRSQYEALVETNR [T2P], the protein stability index turned out to be 3.01. Regarding PQVDLNQVLNETRSQYEALVETNR [T2Q], the protein stability index was 2.71. With PYVDLNQVLNETRSQYEALVETNR [T2Y], the protein stability index was determined as 1.65. Under PSVDLNQVLNETRSQYEALVETNR [T2S] stands 3.27; under PRVDLNQVLNETRSQYEALVETNR [T2R], 3.66; under PVVDLNQVLNETRSQYEALVETNR [T2V], 2.52. Under PNVDLNQVLNETRSQYEALVETNR [T2N] stands 3.72; under PTVDLNQVENETRSQYEALVETNR [L9E], 4.52. Under PTVDLNQVWNETRSQYEALVETNR [L9W] stands 4.04.

For the variant PTVDLNQVKNETRSQYEALVETNR [L9K], the protein stability index came to 4.45. In the case of PTVDLNQVFNETRSQYEALVETNR [L9F], the protein stability index is 3.45. For the variant PTVDLNQVANETRSQYEALVETNR [L9A], the protein stability index is 4.09.

Consider PTVDLNQVNNETRSQYEALVETNR [L9N], for which the protein stability index is 4.76. PTVDLNQVYNETRSQYEALVETNR [L9Y]: the protein stability index came out at 3.61. For the variant PTVDLNQVVNETRSQYEALVETNR [L9V], the protein stability index is 4.28.

On to PTVDLNQVSNETRSQYEALVETNR [L9S], for which the protein stability index is 5.03.

Turning to PTVDLNQVMNETRSQYEALVETNR [L9M], the protein stability index came to 4.21. As for PTVDLNQVTNETRSQYEALVETNR [L9T], the protein stability index was 4.61.

As for PTVDLNQVRNETRSQYEALVETNR [L9R], the protein stability index is 4.36. For the variant PTVDLNQVDNETRSQYEALVETNR [L9D], the protein stability index came out at 5.55. Regarding PTVDLNQVINETRSQYEALVETNR [L9I], the protein stability index turned out to be 3.14. Under PTVDLNQVCNETRSQYEALVETNR [L9C] stands 4.45; under PTVDLNQVPNETRSQYEALVETNR [L9P], 5.34; under PTVDLNQVHNETRSQYEALVETNR [L9H], 4.66. As to PTVDLNQVGNETRSQYEALVETNR [L9G], the protein stability index stood at 4.64. Take PTVDLNQVQNETRSQYEALVETNR [L9Q]: the protein stability index was 3.36.

Consider PTVDLIQVLNETRSQYEALVETNR [N6I], for which the protein stability index stood at 2.03.

On to PTVDLLQVLNETRSQYEALVETNR [N6L], for which the protein stability index was determined as 2.14.

Regarding PTVDLAQVLNETRSQYEALVETNR [N6A], the protein stability index came to 2.48.

On to PTVDLFQVLNETRSQYEALVETNR [N6F], for which the protein stability index worked out at 2.42. Take PTVDLGQVLNETRSQYEALVETNR [N6G]: the protein stability index was 3.79. Under PTVDLCQVLNETRSQYEALVETNR [N6C] stands 2.51.

For the variant PTVDLPQVLNETRSQYEALVETNR [N6P], the protein stability index amounted to 4.8. With PTVDLHQVLNETRSQYEALVETNR [N6H], the protein stability index stood at 2.92. Under PTVDLRQVLNETRSQYEALVETNR [N6R] stands 3.9. As for PTVDLQQVLNETRSQYEALVETNR [N6Q], the protein stability index stood at 2.56.

In the case of PTVDLWQVLNETRSQYEALVETNR [N6W], the protein stability index turned out to be 2.5.

On to PTVDLTQVLNETRSQYEALVETNR [N6T], for which the protein stability index was determined as 3.05. Under PTVDLEQVLNETRSQYEALVETNR [N6E] stands 2.56; under PTVDLVQVLNETRSQYEALVETNR [N6V], 2.

PTVDLYQVLNETRSQYEALVETNR [N6Y]: the protein stability index stood at 1.71. Take PTVDLSQVLNETRSQYEALVETNR [N6S]: the protein stability index turned out to be 3.33. On to PTVDLKQVLNETRSQYEALVETNR [N6K], for which the protein stability index stood at 2.98. Turning to PTVDLDQVLNETRSQYEALVETNR [N6D], the protein stability index was determined as 2.79. For the variant PTVDLMQVLNETRSQYEALVETNR [N6M], the protein stability index is 1.9. On to PTWDLNQVLNETRSQYEALVETNR [V3W], for which the protein stability index was 5.02.
